In data set [1] the target is GUS alone (beta-glucuronidase) (UniProt P05804).
Data set [2] addresses GUS-YVAA-HBD fusion protein (beta-glucuronidase, Tyr-Val-Ala-Ala-Gly linker, hormone binding domain of rat glucocorticoid receptor) (UniProt P05804).

Chain of GUS-YVAA-HBD fusion protein (beta-glucuronidase, Tyr-Val-Ala-Ala-Gly linker, hormone binding domain of rat glucocorticoid receptor) (P05804 other isoform, or with tags, fused parts or gaps): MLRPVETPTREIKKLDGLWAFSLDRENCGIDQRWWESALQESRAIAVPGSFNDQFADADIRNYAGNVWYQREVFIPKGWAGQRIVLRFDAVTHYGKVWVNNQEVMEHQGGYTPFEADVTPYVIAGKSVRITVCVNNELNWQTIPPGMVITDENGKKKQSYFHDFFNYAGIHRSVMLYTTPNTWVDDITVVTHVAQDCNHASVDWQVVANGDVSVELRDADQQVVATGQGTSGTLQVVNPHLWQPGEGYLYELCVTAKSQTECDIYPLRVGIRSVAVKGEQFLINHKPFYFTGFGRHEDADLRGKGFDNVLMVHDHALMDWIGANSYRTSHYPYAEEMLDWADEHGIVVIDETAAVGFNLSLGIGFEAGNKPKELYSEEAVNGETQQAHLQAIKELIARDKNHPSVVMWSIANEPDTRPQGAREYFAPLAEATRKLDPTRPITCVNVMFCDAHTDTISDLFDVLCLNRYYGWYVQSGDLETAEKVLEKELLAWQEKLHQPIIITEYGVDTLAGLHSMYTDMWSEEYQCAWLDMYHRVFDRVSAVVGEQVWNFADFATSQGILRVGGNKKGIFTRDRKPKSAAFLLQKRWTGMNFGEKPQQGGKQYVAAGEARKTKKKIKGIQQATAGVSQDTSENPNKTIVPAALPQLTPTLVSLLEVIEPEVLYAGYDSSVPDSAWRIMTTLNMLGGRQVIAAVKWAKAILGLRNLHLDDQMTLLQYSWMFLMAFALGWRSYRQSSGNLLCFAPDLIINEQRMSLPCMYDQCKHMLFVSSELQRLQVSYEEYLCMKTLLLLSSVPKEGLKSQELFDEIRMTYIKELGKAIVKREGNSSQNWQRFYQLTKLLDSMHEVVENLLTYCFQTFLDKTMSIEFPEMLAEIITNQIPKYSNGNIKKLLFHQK
Chain of GUS alone (beta-glucuronidase) (P05804 whole entry, looked up, the tested form may be a part): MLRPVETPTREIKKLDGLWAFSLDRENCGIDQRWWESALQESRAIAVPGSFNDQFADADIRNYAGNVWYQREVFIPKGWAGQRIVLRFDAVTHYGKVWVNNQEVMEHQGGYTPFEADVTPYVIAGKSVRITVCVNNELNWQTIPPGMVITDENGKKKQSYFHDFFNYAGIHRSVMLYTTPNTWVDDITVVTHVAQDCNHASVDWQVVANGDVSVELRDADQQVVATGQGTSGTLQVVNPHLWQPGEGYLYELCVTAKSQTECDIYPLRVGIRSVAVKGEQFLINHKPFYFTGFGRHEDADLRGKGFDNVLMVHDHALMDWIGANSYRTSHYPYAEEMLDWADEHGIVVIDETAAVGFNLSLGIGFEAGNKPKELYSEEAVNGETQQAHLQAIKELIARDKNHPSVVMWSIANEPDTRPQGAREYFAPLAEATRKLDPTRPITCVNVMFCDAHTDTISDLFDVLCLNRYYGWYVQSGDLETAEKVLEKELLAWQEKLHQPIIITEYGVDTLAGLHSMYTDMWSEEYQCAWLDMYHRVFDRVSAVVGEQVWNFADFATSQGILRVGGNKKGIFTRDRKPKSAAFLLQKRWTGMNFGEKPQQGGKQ

With purified caspase-1, the “proteolytic cleavage, SDS-PAGE autoradiogram of 35S-labelled protein” value in data set [1] and in data set [2] was “no obvious proteolysis was detected by caspase-1 was observed with either the P1 linker mutant fusion or the GUS alone control” in each case. For the same substance, in data set [2], the “GUS activity of in vitro translated fusion after addition of caspase-1” value is “no detectable increase in GUS activity is observed”.
